In article PMC7847308, “Nanoscopic anatomy of dynamic multi-protein complexes at membranes resolved by graphene-induced energy transfer” (eLife, 2021):

Key:
Details in all cases: both partners purified
[1] = target: T1, HOPS complex with Vps16 C-terminally fused to yEGFP (S. cerevisiae, UniProt P38959 1-992; Q07468 1-1049; P12868 1-1029; P27801 1-918; Q03308 1-798; P20795 …); experiment: confocal fluorescence imaging and FLIM of recruitment to supported lipid layers; 50 nM yEGFP-fused HOPS added for 5 min at room temperature to DOPC bilayers on glass or monolayers on graphene loaded with 150 nM pYpt7-GTP; washed 5 times with HBS
T1 construct: Vps41, HOPS subunit, S. cerevisiae; Vps39, HOPS subunit, S. cerevisiae; Vps11, HOPS subunit, S. cerevisiae; Vps18, HOPS subunit, S. cerevisiae; Vps16, HOPS subunit, S. cerevisiae; Vps33, HOPS subunit, S. cerevisiae; also called HOPS Vps16-yEGFP; HOPS (Vps16-yEGFP); source: S. cerevisiae, overexpressed, purified (IgG Sepharose, TEV elution); copies: + + + + +

[2] = target: T2, HOPS complex with Vps18 C-terminally fused to yEGFP (S. cerevisiae, UniProt P38959 1-992; Q07468 1-1049; P12868 1-1029; P27801 1-918; Q03308 1-798; P20795 …); experiment: as above
T2 construct: Vps41, HOPS subunit, S. cerevisiae; Vps39, HOPS subunit, S. cerevisiae; Vps11, HOPS subunit, S. cerevisiae; Vps18, HOPS subunit, S. cerevisiae; Vps16, HOPS subunit, S. cerevisiae; Vps33, HOPS subunit, S. cerevisiae; also called HOPS Vps18-yEGFP; yEGFP-tagged HOPS; source: S. cerevisiae, overexpressed, purified (IgG Sepharose, TEV elution); copies: + + + + +

[3] = target: T3, HOPS complex with Vps11 C-terminally fused to yEGFP (S. cerevisiae, UniProt P38959 1-992; Q07468 1-1049; P12868 1-1029; P27801 1-918; Q03308 1-798; P20795 …); experiment: as above
T3 construct: Vps41, HOPS subunit, S. cerevisiae; Vps39, HOPS subunit, S. cerevisiae; Vps11, HOPS subunit, S. cerevisiae; Vps18, HOPS subunit, S. cerevisiae; Vps16, HOPS subunit, S. cerevisiae; Vps33, HOPS subunit, S. cerevisiae; In the single-molecule experiment labelled with 50 pM Dy647-coupled anti-GFP nanobody; also called HOPS Vps11-yEGFP; HOPS Vps11; source: S. cerevisiae, overexpressed, purified (IgG …)

[4] = target: T4, HOPS complex with Vps33 C-terminally fused to yEGFP (S. cerevisiae, UniProt P38959 1-992; Q07468 1-1049; P12868 1-1029; P27801 1-918; Q03308 1-798; P20795 …); experiment: as above
T4 construct: Vps41, HOPS subunit, S. cerevisiae; Vps39, HOPS subunit, S. cerevisiae; Vps11, HOPS subunit, S. cerevisiae; Vps18, HOPS subunit, S. cerevisiae; Vps16, HOPS subunit, S. cerevisiae; Vps33, HOPS subunit, S. cerevisiae; In the single-molecule experiment labelled with 50 pM Dy647-coupled anti-GFP nanobody; also called HOPS Vps33-yEGFP; HOPS Vps33; source: S. cerevisiae, overexpressed, purified (IgG …)

[5] = target: T5, HOPS complex with Vps39 C-terminally fused to yEGFP (S. cerevisiae, UniProt P38959 1-992; Q07468 1-1049; P12868 1-1029; P27801 1-918; Q03308 1-798; P20795 …); experiment: as above
T5 construct: Vps41, HOPS subunit, S. cerevisiae; Vps39, HOPS subunit, S. cerevisiae; Vps11, HOPS subunit, S. cerevisiae; Vps18, HOPS subunit, S. cerevisiae; Vps16, HOPS subunit, S. cerevisiae; Vps33, HOPS subunit, S. cerevisiae; also called HOPS Vps39-yEGFP; yEGFP-tagged HOPS; source: S. cerevisiae, overexpressed, purified (IgG Sepharose, TEV elution); copies: + + + + +

[6] = target: T6, HOPS complex (S. cerevisiae, UniProt P38959 1-992; Q07468 1-1049; P12868 1-1029; P27801 1-918; Q03308 1-798; P20795 …); experiment: FRAP and confocal imaging on supported lipid bilayers; 200 nM mNeon-pYpt7-GTP anchored in glass-supported lipid bilayers, 100 nM HOPS added; room temperature
T6 construct: Vps41, HOPS subunit, S. cerevisiae; Vps39, HOPS subunit, S. cerevisiae; Vps11, HOPS subunit, S. cerevisiae; Vps18, HOPS subunit, S. cerevisiae; Vps16, HOPS subunit, S. cerevisiae; Vps33, HOPS subunit, S. cerevisiae; 650 kDa heterohexamer; the 3HA follows the GAL1 promoter in the genotype; also called homotypic fusion and vacuole protein sorting complex; untagged HOPS; source: S. cerevisiae, …

[7] = target: T7, Mon1-Ccz1 complex (S. cerevisiae, UniProt P53129 1-644; P38273 1-704); experiment: GIET fluorescence lifetime (FLIM) on graphene-supported lipid monolayers; 200 nM mNeon-pYpt7-GTP anchored in lipid layers on graphene and glass; 100 nM Mon1-Ccz1 or HOPS added for 5 min at room temperature, washed 8 times with HBS; lifetime ratio of mNeon
T7 construct: Mon1, S. cerevisiae; chromosomal locus under the GAL1 promoter; Ccz1, S. cerevisiae; chromosomal locus under the GAL1 promoter, TAP-tagged; Eluted from IgG beads by TEV cleavage; also called GEF; source: S. cerevisiae, overexpressed, purified (IgG Sepharose, TEV elution)
T7 sequence (looked up) 1: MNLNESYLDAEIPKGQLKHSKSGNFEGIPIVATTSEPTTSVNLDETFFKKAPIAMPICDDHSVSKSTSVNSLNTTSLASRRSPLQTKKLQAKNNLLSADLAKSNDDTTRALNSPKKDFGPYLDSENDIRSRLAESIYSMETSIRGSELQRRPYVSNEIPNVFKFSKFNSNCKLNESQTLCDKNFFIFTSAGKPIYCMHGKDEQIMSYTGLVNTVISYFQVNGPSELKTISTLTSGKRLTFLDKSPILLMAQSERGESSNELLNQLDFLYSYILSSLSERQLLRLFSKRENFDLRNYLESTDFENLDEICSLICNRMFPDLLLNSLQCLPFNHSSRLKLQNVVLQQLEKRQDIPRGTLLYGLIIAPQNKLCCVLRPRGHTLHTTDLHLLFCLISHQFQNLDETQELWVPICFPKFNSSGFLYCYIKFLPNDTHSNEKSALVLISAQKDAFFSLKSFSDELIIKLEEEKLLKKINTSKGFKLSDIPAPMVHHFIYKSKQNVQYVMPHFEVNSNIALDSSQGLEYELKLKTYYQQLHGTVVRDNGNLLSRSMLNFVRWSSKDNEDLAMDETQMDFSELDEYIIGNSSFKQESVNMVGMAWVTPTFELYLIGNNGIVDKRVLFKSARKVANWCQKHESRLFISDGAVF
T7 sequence (looked up) 2: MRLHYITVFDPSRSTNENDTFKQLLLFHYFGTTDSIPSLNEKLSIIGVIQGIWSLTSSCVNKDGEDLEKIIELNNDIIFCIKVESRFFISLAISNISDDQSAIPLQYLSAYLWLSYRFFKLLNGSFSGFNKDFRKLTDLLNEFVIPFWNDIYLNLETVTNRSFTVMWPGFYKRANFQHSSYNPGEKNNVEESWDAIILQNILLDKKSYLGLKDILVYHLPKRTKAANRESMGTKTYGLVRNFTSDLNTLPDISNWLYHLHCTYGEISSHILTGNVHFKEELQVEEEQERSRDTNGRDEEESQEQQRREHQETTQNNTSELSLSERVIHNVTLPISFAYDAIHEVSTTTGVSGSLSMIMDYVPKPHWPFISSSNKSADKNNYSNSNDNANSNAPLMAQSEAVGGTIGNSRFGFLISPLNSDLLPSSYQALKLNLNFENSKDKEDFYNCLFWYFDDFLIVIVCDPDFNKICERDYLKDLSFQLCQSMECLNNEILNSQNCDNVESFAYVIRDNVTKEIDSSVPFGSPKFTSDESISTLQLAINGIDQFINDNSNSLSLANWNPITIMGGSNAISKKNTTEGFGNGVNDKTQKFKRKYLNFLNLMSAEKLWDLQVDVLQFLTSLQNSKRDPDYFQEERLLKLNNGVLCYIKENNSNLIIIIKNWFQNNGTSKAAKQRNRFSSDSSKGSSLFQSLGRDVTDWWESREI

Measured: binding result

B1: prenylated Ypt7 (natural protein, S. cerevisiae, UniProt P32939 1-208, looked up)
chain: MSSRKKNILKVIILGDSGVGKTSLMHRYVNDKYSQQYKATIGADFLTKEVTVDGDKVATMQVWDTAGQERFQSLGVAFYRGADCCVLVYDVTNASSFENIKSWRDEFLVHANVNSPETFPFVILGNKIDAEESKKIVSEKSAQELAKSLGDIPLFLTSAKNAINVDTAFEEIARSALQQNQADTEAFEDDYNDAINIRLDGENNSCSC
modifications: C-terminal prenyl (geranylgeranyl) group, added by in vitro prenylation
notes: Ypt7, Rab7-like GTPase of S. cerevisiae; pET24d-GST-TEV-Ypt7 is surmised (the other construct carries a C-terminal His6 tag); GDP-loaded with GDI, GTP-loaded on membranes; also called pYpt7; pYpt7-GTP; source: E. coli BL21 (DE3) Rosetta, purified, prenylated in vitro
binds: [1] | [2] | [3] | [4] | [5]

B2: prenylated mNeonGreen-Ypt7 (natural protein, S. cerevisiae, UniProt P32939 1-208, looked up)
chain: B1 chain
modifications: C-terminal prenyl (geranylgeranyl) group, added by in vitro prenylation
notes: Ypt7, Rab7-like GTPase of S. cerevisiae; GDP-loaded in the complex with GDI; GTP-loaded when anchored in the lipid layers; also called mNeon-pYpt7; mNeon-Ypt7; source: E. coli BL21 (DE3) Rosetta, purified (Glutathione Sepharose, TEV cleavage), prenylated in vitro; not shown: mNeonGreen (via a GGSGx3 linker), N-terminal, kept
binds: [6] | [7]
